Reference: patent publication US20210155676A1
Residue numbers refer to the chain shown, from its start.

B1: PGT121.42 hIgG1/hLambda (antibody)
heavy: QMQLQESGPGLVKPSETLSLTCSVSGASISDSYWSWIRRSPGKGLEWIGYVHKSGDTNYNPSLKSRVHLSLDTSKNQVSLSLSSVTAADSGKYYCARTLHGRRIYGIVAFNEWFTYFYMDVWGKGTQVTVSSASTKGPSVFPLAPSSKSTSGGTAALGCLVKDYFPEPVTVSWNSGALTSGVHTFPAVLQSSGLYSLSSVVTVPSSSLGTQTYICNVNHKPSNTKVDKKVEPKSCDKTHTCPPCPAPELLAGPDVFLFPPKPKDTLMISRTPEVTCVVVDVSHEDPEVKFNWYVDGVEVHNAKTKPREEQYNSTYRVVSVLTVLHQDWLNGKEYKCKVSNKALPLPEEKTISKAKGQPREPQVYTLPPSREEMTKNQVSLTCLVKGFYPSDIAVEWESNGQPENNYKTTPPVLDSDGSFFLYSKLTVDKSRWQQGNVFSCSVLHEALHSHYTQKSLSLSPGK
light: not shown
B2: PGT121.60 hIgG1/hLambda (antibody)
heavy: B1 heavy with S83T, S84G, K124T
light: not shown
B3: PGT121.64 hIgG1/hLambda (antibody)
heavy: B1 heavy with M2L, S32A, S83T, S84G, T98A, K124T
light: not shown
B4: PGT121.61 hIgG1/hLambda (antibody)
heavy: B1 heavy with S83T, S84G, K124T
light: SDISVAPGETARISCGEKSLGSRAVQWYQHRAGQAPSLIIYNNQDRPSGIPERFSGSPDSRPGTTATLTITSVEAGDEADYYCHIWDSRVPTKWVFGGGTKLTVLGQPKAAPSVTLFPPSSEELQANKATLVCLISDFYPGAVTVAWKADSSPVKAGVETTTPSKQSNNKYAASSYLSLTPEQWKSHRSYSCQVTHEGSTVEKTVAPTECS
B5: PGT121.56 hIgG1/hLambda (antibody)
heavy: B1 heavy with N60S, H68N, S83V, S84A, V85A, K124N
light: not shown
B6: PGT121.65 hIgG1/hLambda (antibody)
heavy: B1 heavy with M2L, S32A, S83T, S84G, T98A, K124T
light: B4 light

Biological target: Env of 92 subtype B viruses
Test: cell-based or functional assay

Binder | PGT121 IC50/Variant IC50 [fold] | neutralization Coverage (%) | neutralization Median IC95 [µg/mL]
B1 | 1.2 | 63 | 0.277
B2 | 1.9 | 59.8 | 0.177
B3 | 2.6 | 59.8 | 0.129
B4 | 1 | 58.7 | 0.327
B5 |  | 62 | 0.265
B6 | 2 | 59.8 | 0.165
